Source: patent US20210332120A1

Target: human IL-17A (human) (UniProt Q16552)
Assay: BLI Octet Red 96; Fab on anti-FABCH1 sensors, IL-17A 30 µg/ml as analyte, 1:1 model

human IL-17A (human), sequence (Q16552 20-155 limits assumed): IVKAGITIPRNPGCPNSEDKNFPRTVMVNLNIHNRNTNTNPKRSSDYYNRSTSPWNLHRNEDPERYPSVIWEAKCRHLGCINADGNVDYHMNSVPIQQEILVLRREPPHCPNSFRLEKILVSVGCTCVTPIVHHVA

B1: 3VHHVK4B11 Fab (Fab, part only; not given: Light chain VK4B11, tags, not shown: small tags and cut ends)
heavy: QVQLQQSGGGSVQAGGSLRLSCAASGGTFATSPMGWLRQAPGKEREFVAAISPSGGDRIYDDSVKGRFTISRDNAGYFIYLQMNSLKPEDTARYYCAVRRRFDGTSYYTGDYDSWGQGTLVTVSS
koff: < 2.27e-06 s⁻¹
